From the RNAGym collection of RNA variant scans (doi:10.1073/pnas.2313332121)
Variants at the floor of the assay were thinned out.

B1: TPR 5TU (parent)
chain: GGAUCUUCUCGAUCUAACAAAAAAGACAAAUCUGCCACAAAGCUUGAGAGCAUCUUCGGAUGCAGAGGCGGCAGCCUUCGGUGGCGCGAUAGCGCCAACGUUCUCAACUAUGACACGCAAAACGCGUGCUCCGUUGAAUGGAGUUUAUCAUG

Variants of: B1
Test: polymerase ribozyme fitness, log enrichment relative to wild type (log ratio); higher = more active; in vitro selection for triplet polymerase activity
In short: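 The heterodimeric triplet polymerase ribozyme's subunits were each mutagenized into PCR-built libraries and transcribed. Every library was selected once, in triplicate, by annealing with a biotinylated primer, the partner subunit and triplets, incubating frozen at −7 °C, gel-excising extended constructs, capturing on streptavidin beads and running RT-PCR. Input and output libraries were Illumina-sequenced, with genotypes kept only at ≥10 input reads and ≥1 read per output. Fitness, from inverse-variance-weighted replicate averages, is the base-2 logarithm of genotype enrichment over wild-type enrichment.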

Point of comparison: A16U A26C G84A, “polymerase ribozyme fitness (log ratio)” value -3.52. Against it:
- A16G C27G G70C C87U A119U G133C G143A — lower, ≤ -4.2
- U15G A24U A60G G92U — higher, 0.475
- A17C A24U C114A — lower, -3.86
- A16G A98U — higher, -1.65
- A16G C27A G58C C85A C96G C116U G143C U148A — lower, ≤ -4.2
- A16G A22U A91U C93U U102G G128U — lower, ≤ -4.2
- A16U C38U C51U A73G G92U G94A A98C U151A — lower, -3.96
- A16U C32G G34A C85G U90G A97G U134G G141C — lower, ≤ -4.2
- U15C C35U U56A A89C — higher, 0.662
- A16U G59C A150U — higher, -0.494
- A17C C18U C43U A97G U148A — lower, ≤ -4.2
- A17G A52U A64U G65A G86C A107C G128A — lower, ≤ -4.2
- A17C G141U — higher, 1.61
- A16C A19U C85U G117U A150U — higher, 0.0374
- U15G A17G C27G A39G — lower, ≤ -4.2
- A17G A19U — higher, 0.00969
- U15C U56G A113U — higher, -0.657
- C14U G83C A106C — higher, -2.96
- A16U A37U A52C G112U U139A — lower, ≤ -4.2
- A16U C85U U144C — higher, -2.3
- A16C A24G A47C C85G A97C A120G — lower, ≤ -4.2
- A16U A37C C63U C95U A119U A122U — higher, -3.13
- U15G G59A G83U C118G — higher, -1.13
- C14U G48U A52U A138C A142C U148G — lower, ≤ -4.2
- A17G C69G C85G A107C A122G — lower, ≤ -4.2
- A17G A37U C51U — higher, -2.83
- U15G C27A — lower, -4.13
- U15G A16C A21U A26C C103U — lower, -3.98
- U15G A24C G59C G68C C79G G81U C95A C132U — lower, ≤ -4.2
- A17C U31A G92U A98U G141A — higher, 0.253
- A16U G71A A73G C93U A113C C118A G140A — lower, ≤ -4.2
- U15G G74A C96U C125A G141U — lower, ≤ -4.2
- A16U U53A A66G C87A — lower, ≤ -4.2
- U15C C87U A142U — higher, -0.702
- A16U A19C C57U G71C U134G G141U — lower, ≤ -4.2
- A17G C51U A106G A120C A122U — higher, -1.36
- C14U G143A — higher, -1.26
- U15C A24C C93U G128U G140A U144C — lower, ≤ -4.2
- U15C U56A C79A G80U C96U C103A A107C U146A — lower, ≤ -4.2
- U15A G59A A60G C69A A121C G140A — lower, -3.82
- C14U U53A U56A — higher, -2.46
- A17C G50U U56A G58C G84U — higher, -1.22
- A16U A41G — higher, -1.88
- A16C A21U C69U G71A — higher, -1.79
- A16U C54U — higher, -1.53
- U15C G74C G94C — lower, -4.1
- A16G A97G U144G — higher, -0.0952
- U15G U53A A60C G83A C85U — lower, -3.78
- A16C C72U U82A C85U A91U — lower, ≤ -4.2
- A16U A37U C79A C99U U139A A142U — lower, ≤ -4.2
- A16C A17G C76G C96A A107G — lower, ≤ -4.2
- A16U U61A C93U G140A G143U U148G — lower, ≤ -4.2
- A17G A24C A41U A91U A98G — lower, ≤ -4.2
- U15G C57G C93A C99G — lower, -4.06
- A16G C76U C79A G83U G152U — lower, ≤ -4.2
- C14U U56A G74A C85A C87A C125U G143C A150U G152U — lower, ≤ -4.2
- U15A A29U G59U C95U A120G U127G U135C G143A — lower, ≤ -4.2
- A16U C87U — higher, -2.65
- A17C C85U — higher, 0.349
- C14U G84A — higher, -1.56
- C14U U55A G126A C132U — higher, -1.73
- C14U G50A G58C A121C — higher, -3.27
- A16C C54G U77G C85U U135C — lower, ≤ -4.2
- A17C C36U A52C G80U G84C A107U U144C — lower, ≤ -4.2
- C14U U31A G48C G67C A91U — lower, ≤ -4.2
- U15G A21C G83U A89G C96G U127A — lower, -4.13
- A17C A22U A37U A60G G71U U78A C93A U104G A122C — lower, ≤ -4.2
- A16C C79A A91U C116A C149A — lower, ≤ -4.2
- U15C A20U C54U G86U — higher, -1.77
- U15C A91U — lower, ≤ -4.2
- A16U C27A G42A U44G U45A A49C A113G U144A — lower, ≤ -4.2
- A16G A91U C105G A115G — lower, ≤ -4.2
- A17C C35U G86A A122G — higher, -1.01
- A16G G46U U55A C85A C105A — lower, -4.14
- A16C A89U A91U U127C — lower, ≤ -4.2
- A16G G48A C57A C76U A89C C95A C116G C131A G136C — lower, ≤ -4.2
- A17G C38U C57A C63A A115G U144A — higher, -1.28
- C14U U55A C85G C93U C96A U102A A115G — lower, ≤ -4.2
- C14U U31C C76U G84U A142G G143U U146G — lower, ≤ -4.2
- U15G A17U — higher, -0.367
- A16U A49C G50A C54G C96A U101C U135G — lower, ≤ -4.2
- U15A A17U C57G G88U A91C U111C C129A U134G U148C — lower, ≤ -4.2
- A16U C18A A21C A73U G92U — higher, -2.75
